Laboratory results taken from patent publication US7985567B2, “Host cells and methods for producing 3-methyl-2-buten-1-ol, 3-methyl-3-buten-1-ol, and 3-methyl-butan-1-ol” (The Regents of the University of California, priority 2007, dated 2011).

B1: OYE3: Old yellow enzyme family reductase of S. cerevisiae, gene locus YPL171c (protein, UniProt P41816 2-400, looked up)
NADPH dehydrogenase 3: PFVKGFEPISLRDTNLFEPIKIGNTQLAHRAVMPPLTRMRATHPGNIPNKEWAAVYYGQRAQRPGTMIITEGTFISPQAGGYDNAPGIWSDEQVAEWKNIFLAIHDCQSFAWVQLWSLGWASFPDVLARDGLRYDCASDRVYMNATLQEKAKDANNLEHSLTKDDIKQYIKDYIHAAKNSIAAGADGVEIHSANGYLLNQFLDPHSNKRTDEYGGTIENRARFTLEVVDALIETIGPERVGLRLSPYGTFNSMSGGAEPGIIAQYSYVLGELEKRAKAGKRLAFVHLVEPRVTDPSLVEGEGEYSEGTNDFAYSIWKGPIIRAGNYALHPEVVREQVKDPRTLIGYGRFFISNPDLVYRLEEGLPLNKYDRSTFYTMSAEGYTDYPTYEEAVDLGWNKN
B2: OYE2: Old yellow enzyme family reductase of S. cerevisiae, gene locus YHR179w (protein, UniProt Q03558 2-400, looked up)
NADPH dehydrogenase 2: PFVKDFKPQALGDTNLFKPIKIGNNELLHRAVIPPLTRMRAQHPGNIPNRDWAVEYYAQRAQRPGTLIITEGTFPSPQSGGYDNAPGIWSEEQIKEWTKIFKAIHENKSFAWVQLWVLGWAAFPDTLARDGLRYDSASDNVYMNAEQEEKAKKANNPQHSITKDEIKQYVKEYVQAAKNSIAAGADGVEIHSANGYLLNQFLDPHSNNRTDEYGGSIENRARFTLEVVDAVVDAIGPEKVGLRLSPYGVFNSMSGGAETGIVAQYAYVLGELERRAKAGKRLAFVHLVEPRVTNPFLTEGEGEYNGGSNKFAYSIWKGPIIRAGNFALHPEVVREEVKDPRTLIGYGRFFISNPDLVDRLEKGLPLNKYDRDTFYKMSAEGYIDYPTYEEALKLGWDKN

Test system: S. cerevisiae BY4741 transformed with pESC expressing a reductase candidate gene
Experiment: Screening of reductase candidates for reduction of 3-methyl-2-butenol to 3-methyl-butanol
Format: cell-based, Saccharomyces cerevisiae
Conditions: 3-methyl-2-butenol 1 g/l; relative to controls; FIGS. 4 and 5
Description: To identify enzymes with the capability to catalyze the reduction 3-methyl-2-butenol to 3-methyl-butanol the following assay system was employed. 5 ml of synthetic defined medium lacking leucine with 1.8% galactose and 0.2% glucose was inoculated with an overnight culture of S. cerevisiae BY4741 freshly transformed with a vector (pESC) expressing a reductase candidate gene to achieve a final absorbance of 0.5 at 600 nm (A600). The cultures were grown at 30° C. at 200 r.p.m. After 48 hours, 3-methyl-2-butenol (1 g/l) was added to the culture.
Cultures were sampled for isopentanol production after addition of 3-methyl-2-butenol as described in Example 3.

Molecule | isopentanol production from 3-methyl-2-butenol by yeast over-expressing the reductase
B1 | significant increase in isopentanol production
B2 | significant increase in isopentanol production
